Assay [1] deals with T1, Human LSD2 (residues 51-822) (human, UniProt Q8NB78 51-822).
T1 construct: range 51-822; Expressed in Sf9 cells with a His6 tag removed by 3C protease; used for ITC; also called KDM1b; AOF1
T1 sequence (looked up): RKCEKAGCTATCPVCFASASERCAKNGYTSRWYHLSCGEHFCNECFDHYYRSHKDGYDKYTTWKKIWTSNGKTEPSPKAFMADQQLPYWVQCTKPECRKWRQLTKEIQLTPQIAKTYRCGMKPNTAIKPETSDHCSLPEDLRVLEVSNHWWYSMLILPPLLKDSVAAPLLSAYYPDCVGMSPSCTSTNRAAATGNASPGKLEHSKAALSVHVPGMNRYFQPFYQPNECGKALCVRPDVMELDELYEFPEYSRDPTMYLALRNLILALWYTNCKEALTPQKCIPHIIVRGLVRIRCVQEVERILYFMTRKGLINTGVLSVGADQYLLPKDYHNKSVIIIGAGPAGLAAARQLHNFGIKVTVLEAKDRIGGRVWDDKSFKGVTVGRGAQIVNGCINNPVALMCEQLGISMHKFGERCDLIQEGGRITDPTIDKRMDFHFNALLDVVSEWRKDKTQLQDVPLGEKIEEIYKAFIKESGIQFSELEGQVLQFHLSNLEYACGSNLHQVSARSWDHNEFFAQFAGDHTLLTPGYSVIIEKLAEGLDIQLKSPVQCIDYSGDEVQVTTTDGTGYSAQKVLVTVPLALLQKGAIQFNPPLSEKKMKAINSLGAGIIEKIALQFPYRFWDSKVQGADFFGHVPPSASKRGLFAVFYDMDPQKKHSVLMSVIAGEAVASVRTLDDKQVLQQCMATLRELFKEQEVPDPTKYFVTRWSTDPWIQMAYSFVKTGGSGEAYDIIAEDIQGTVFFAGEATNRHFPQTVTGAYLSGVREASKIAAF
Briefly: ITC, 15 °C; 3 mM peptide injected into 0.2 mM LSD2 (residues 51-822). On the procedure:
Isothermal Titration Calorimetry (ITC) binding study. […] All proteins and peptides were prepared in 10 mM HEPES, pH 8.0, and 0.1 M NaCl. The data were fitted by software Origin 7.0.

Assay [2] deals with T2, Recombinant 6x his tagged full-length LSD2 (human, UniProt Q8NB78 1-822).
T2 construct: range 1-822; Expressed in and purified from Sf9 insect cells; also called His-LSD2; full-length His-LSD2
T2 sequence: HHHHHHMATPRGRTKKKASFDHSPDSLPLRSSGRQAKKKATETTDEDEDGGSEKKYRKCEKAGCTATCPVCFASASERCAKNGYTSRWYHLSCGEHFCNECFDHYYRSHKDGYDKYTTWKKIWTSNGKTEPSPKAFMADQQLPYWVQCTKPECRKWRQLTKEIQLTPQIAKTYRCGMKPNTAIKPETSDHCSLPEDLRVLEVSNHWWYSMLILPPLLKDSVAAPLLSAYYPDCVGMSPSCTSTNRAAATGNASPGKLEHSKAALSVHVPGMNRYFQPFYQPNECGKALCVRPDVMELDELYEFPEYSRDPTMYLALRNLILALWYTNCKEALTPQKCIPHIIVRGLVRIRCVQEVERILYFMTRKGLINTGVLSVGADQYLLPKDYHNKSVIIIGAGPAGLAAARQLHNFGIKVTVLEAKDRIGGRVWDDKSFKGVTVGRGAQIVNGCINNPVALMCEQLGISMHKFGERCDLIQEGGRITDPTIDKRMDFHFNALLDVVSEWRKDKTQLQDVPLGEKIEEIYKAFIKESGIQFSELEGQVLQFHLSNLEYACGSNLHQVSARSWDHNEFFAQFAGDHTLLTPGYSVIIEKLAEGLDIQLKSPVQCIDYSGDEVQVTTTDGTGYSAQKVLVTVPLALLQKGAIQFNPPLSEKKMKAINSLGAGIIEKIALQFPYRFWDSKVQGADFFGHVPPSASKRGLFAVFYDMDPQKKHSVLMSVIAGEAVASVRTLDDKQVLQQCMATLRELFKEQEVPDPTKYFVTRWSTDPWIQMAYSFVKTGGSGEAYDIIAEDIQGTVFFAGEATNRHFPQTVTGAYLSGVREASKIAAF
The assay is described as follows: GST pulldown of purified His-LSD2, SDS-PAGE, Coomassie. On the procedure: DH, dehydrogenase domain; black box, AT-hook motif. FIG. 2A discloses “PWWP” as SEQ ID NO: 63. […] Molecular masses corresponding to mono- and di-methylated H3K4 peptides (residues 1-21) are denoted as me1 and me2, respectively.
(§1) After washed 4 times with same buffer at 4° C., glutathione agarose beads were boiled in 1× SDS sample loading buffer. Elute was resolved on a 15% SDS-PAGE gel and stained by coomassie blue.

Assay [3] deals with T2, Recombinant 6x his tagged full-length …. Briefly: GST pulldown of His-LSD2, SDS-PAGE, Coomassie. On the procedure: FIG. 5B discloses SEQ ID NO: 51. […] FIG. 5D discloses SEQ ID NOS 63 and 76, respectively, in order of appearance. […] See also FIG. 6G.
as §1

Ends that are not written are not given here.

DPHFHHFLLSQT (also called wild-type NPAC peptide) [NPAC.214-225.WT (wild-type NPAC dodecapeptide, residues 214-225)]: in assay [1], the Binding ratio is 1.06, the Kd was 0.92 µM, the “Δ H” value is -35.5 kJ/mol and the “Δ S” value is -1.82 cal/mol/deg.

B1: NPAC.214-225.M6 (F217A) (peptide)
peptide: DPHAHHFLLSQT
notes: Synthetic dodecapeptide; also called NP.M6
As for B1, in assay [1], the Binding ratio amounted to 1.1, the Kd worked out at 0.93 µM, the “Δ H” value was -34.2 kJ/mol and the “Δ S” value was -0.783 cal/mol/deg.

B2: NPAC.214-225.M8 (D214A/H216A/F217A) (peptide)
peptide: APAAHHFLLSQT
notes: Synthetic dodecapeptide; also called D214A/H216A/F217A triple mutant peptide
In the case of B2, in assay [1], the “Δ H” value is -34.7 kJ/mol and the “Δ S” value was -1.3 cal/mol/deg.

B3: GST-NP.d5 (NPAC residues 262-553, dehydrogenase domain) (other)
chain: SITPTDKKIGFLGLGLMGSGIVSNLLKMGHTVTVWNRTAEKCDLFIQEGARLGRTPAEVVSTCDITFACVSDPKAAKDLVLGPSGVLQGIRPGKCYVDMSTVDADTVTELAQVIVSRGGRFLEAPVSGNQQLSNDGMLVILAAGDRGLYEDCSSCFQAMGKTSFFLGEVGNAAKMMLIVNMVQGSFMATIAEGLTLAHVTGQSQQTLLDILNQGQLASIFLDQKCQNILQGNFKPDFYLKYIQKDLRLAIALGDAVNHPTPMAAAANEVYKRAKALDQSDNDMSAVYRAYIH
notes: not shown: glutathione S-transferase (GST) tag from vector pGEX-4T-1
Turning to B3, the binding result in assay [2] is listed as “no binding”.

B4: GST-NP.d6 (NPAC with deletion of the linker region, residues 152-252) (other, not shown: a dimerising Fc or GST; small tags and cut ends)
chain: MAAVSLRLGDLVWGKLGRYPPWPGKIVNPPKDLKKPRGKKCFFVKFFGTEDHAWIKVEQLKPYHAHKEEMIKINKGKRFQQAVDAVEEFLRRAKGKDQTSSHNSSDDKNRRNSSEERSRPNSGDEKRKLSLSEGKVKKNMGEGKKRVSSGSAADSTAVNGSITPTDKKIGFLGLGLMGSGIVSNLLKMGHTVTVWNRTAEKCDLFIQEGARLGRTPAEVVSTCDITFACVSDPKAAKDLVLGPSGVLQGIRPGKCYVDMSTVDADTVTELAQVIVSRGGRFLEAPVSGNQQLSNDGMLVILAAGDRGLYEDCSSCFQAMGKTSFFLGEVGNAAKMMLIVNMVQGSFMATIAEGLTLAHVTGQSQQTLLDILNQGQLASIFLDQKCQNILQGNFKPDFYLKYIQKDLRLAIALGDAVNHPTPMAAAANEVYKRAKALDQSDNDMSAVYRAYIH
notes: The flanking ranges are derived from that
For the molecule B4, the binding result in assay [2] is “no binding”.

B5: GST-NP.d7 (NPAC residues 152-186, containing the AT hook motif) (other)
chain: SERGSKSPLKRAQEQSPRKRGRPPKDEKDLTIPES
modifications: also: GST tag fusion, tag and linker sequence not given here
notes: as for B3
In the case of B5, the binding result in assay [3] is given as “no binding”.

B6: GST-NP.d9 (NP.d3, NPAC residues 152-252, with deletion of amino acids 214-222) (other, not shown: a dimerising Fc or GST; small tags and cut ends)
chain: SERGSKSPLKRAQEQSPRKRGRPPKDEKDLTIPESSTVKGMMAGPMAAFKWQPTASEPVKDASQTEKPAVCYQAITKKLKICEEETGSTSIQ
notes: as for B4
For the molecule B6, the binding result in assay [3] is given as “no binding”.

B7: GST-NP.d1 (NPAC residues 1-150, PWWP domain) (other)
chain: MAAVSLRLGDLVWGKLGRYPPWPGKIVNPPKDLKKPRGKKCFFVKFFGTEDHAWIKVEQLKPYHAHKEEMIKINKGKRFQQAVDAVEEFLRRAKGKDQTSSHNSSDDKNRRNSSEERSRPNSGDEKRKLSLSEGKVKKNMGEGKKRVSSG
notes: as for B3
In the case of B7, the binding result in assay [2] is on record as “no binding”.

For orientation: Kd means the concentration at which binding is half-saturated. A low value points to a tighter complex.
